Experimental data from patent US20260183437A1, “VHH ANTIBODY CONJUGATES WITH HETEROARYL CHELATORS” (ABDERA THERAPEUTICS INC., priority 2022, published 2026).

What was measured:
hFcRn = molecular target: T1, hFcRn (Homo sapiens, UniProt P55899); assay: FcRn affinity by biolayer interferometry (Octet RED96e), pH 6.0; conditions: pH 6.0, 2:1 binding model
T1 construct: purchased Sino Biological CT071-H27H-B
Experimental: FcRn affinity of VHH-Fc can generally be used to predict the half-life of antibody serum clearance. (See, e.g., Datta-Mannan A et al. “FcRn affinity-pharmacokinetic relationship of five human IgG4 antibodies engineered for improved in vitro FcRn binding properties in cynomolgus monkeys.” Drug Metab Dispos. 2012 August; 40(8):1545-55). Briefly, 10 nM of biotinylated hFcRn (Sino Biological, Cat #: CT071-H27H-B) was captured with the SA biosensor using Octet RED96e (Fortebio). The hFcRN coated biosensor was dipped into the sample solutions in sodium phosphate buffer (100 mM Na2HPO4, 150 mM NaCl w/ 0.05% Tween-20, pH 6.0) with serial concentrations of tested antibodies and the association measured. The dissociation was measured by dipping the biosensors into sodium phosphate buffer without antibody. The KD values were determined using Octet Data Analysis HT 11.0 software. 2:1 (Heterogeneous Ligand) binding model was used in analysis. […] Changes in FcRn affinity were consistent across targets. Constructs with Fc Effector mutation only have no impact on FcRn affinity.

human insulin = molecular target: T2, human insulin (Homo sapiens, UniProt P01308); assay: Polyreactivity ELISA; format: binding; conditions: 10 μg/mL VHH-Fc; signal normalized to non-coated well
T2 construct: 5 μg/mL of human insulin (SigmaAlrich, Cat #: I9278); purchased SigmaAlrich I9278
Experimental: Polyreactivity of VHH-Fcs against negatively charged biomolecules was determined by ELISA (As in Avery et al., “Establishing in vitro in vivo correlations to screen monoclonal antibodies for physicochemical properties related to favorable human pharmacokinetics.” MAbs. 2018 February/March; 10(2):244-255). Briefly, ELISA plate was coated with 5 μg/mL of human insulin (SigmaAlrich, Cat #: I9278) and 10 μg/mL of double stranded DNA (SigmaAlrich, Cat #: D1626-250MG) overnight. The plate was blocked with ELISA buffer (PBS, 1 mM EDTA, 0.05% Tween-20, pH 7.4). 10 μg/mL of test VHH-Fcs was loaded onto the plates in quadruplicates and incubated for 2 hours. Goat anti-human Fc(0.01 ug/ml) conjugated with HRP was then added and the plate incubated for 1 hour. The signal was developed with TMB and A450 absorbance was measured with Synergy Neo2 plate reader. The signal was normalized with the signal of non-coated well for each antibody tested.

[1] = Pharmacokinetics of VHH-Fc variants in Tg32 (humanized FcRn) mice; format: in vivo; conditions: IV 3 mg/kg, HER2 VHH-Fc study (Table 6)
Experimental: Twenty eight (28) 8 week old male B6. Cg-Fcgrt^tm1Der Tg(FCGRT)32Dcr/DcrJ (Tg32 hom, JAX stock #014565) mice were distributed into 7 groups with 4 mice per group as outlined in the table. […] (See, e.g., Avery L B et al. “Utility of a human FcRn transgenic mouse model in drug discovery for early assessment and prediction of human pharmacokinetics of monoclonal antibodies.” MAbs. 2016 August-September; 8(6):1064-78). On Day 0, body weights were measured and test articles were IV administered to all mice at 3 mg/kg and 5 mL/kg. 25 μL blood samples were collected from each mouse at time intervals. The blood samples were collected into 1 μL K3EDTA, processed to plasma, diluted 1/10 in 50% glycerol in PBS, transferred into specialized 96 well storage plates, and stored at −20° C. All plasma samples were assessed via a hIgG ELISA chosen for its high sensitivity for all seven test articles.

BT-474 tumor = assay: Biodistribution of ^111In radiolabeled VHH-Fcs, SPECT/CT imaging; format: in vivo, mice; conditions: labeled with ^111In, compared with H101
Experimental: The objective of this study was to observe the biodistribution of ^111In radiolabeled SPECT/CT imaging across select test articles in BT-474 tumor (breast cancer cells) bearing nude mice. The following articles were tested at a CAR of about 4: ^111In-H101-4-1, ^111In-H1014-2, ^111In-H105-4-2, ^111In-H107-4-2, and ^111In-H108-4-2. FIGS. 9A, 9B, and 9C show tissue accumulation over time for ^111In-H101-SL, ^111In-H101-4-2, and ^111In-H108-4-2. […] FIGS. 10A, 10B, and 10C show tumor:tissue ratios. In each case, the tumor:tissue ratios were greater than 5, indicating increased tumor accumulation and better profiles used for determining safety (e.g., as compared lower tumor:tissue ratios). […] In each case, the VHH-Fc variants show advantageous targeting of tumor tissue.

FcγRIIa (R167) = molecular target: T3, FcγRIIa (R167) (Homo sapiens, UniProt P12318, H167R); assay: FcγR affinity by biolayer interferometry (Octet Red96e); format: binding
T3 construct: purchased Acro Biosystems
T3 sequence (P12318 36-218 H167R limits assumed): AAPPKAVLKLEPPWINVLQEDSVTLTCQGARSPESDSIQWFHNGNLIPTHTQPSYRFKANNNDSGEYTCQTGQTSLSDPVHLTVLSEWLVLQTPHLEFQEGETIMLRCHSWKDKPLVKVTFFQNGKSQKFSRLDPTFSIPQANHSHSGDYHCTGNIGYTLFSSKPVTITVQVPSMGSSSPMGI
Experimental: (§1) VHH-Fcs were also tested for affinity to FcγRs by biolayer interferometry using the Octet Red96e platform. Each cycle is performed with orbital shake speed of 1,000 rpm. Streptavidin (SA) biosensors (Sartorius 18-5019) were rehydrated for 10 mins using kinetics buffer (PBS+0.1% BSA+0.02% Tween-20). Biotinylated-FcγRs (Acro Biosystems) were then loaded for 40-100 s onto SA biosensors at concentrations ranging between 1-5 μg/mL diluted in PBS. VHH-Fcs were serially diluted 1:2 in sample buffer (PBS+0.02% Tween-20) with starting concentrations ranging between 5000 nM to 37.5 nM. Loaded biosensors were then associated with VHH-Fcs for 60-120 s. VHH-Fc dissociation was measured for 30-900 s in sample buffer. Bound VHH-Fcs were then removed using 3 cycles of 5 s regeneration buffer (150 mM NaCl, 300 mM Sodium Citrate) and 5 s sample buffer. The data was analyzed either using a globally-fitted 1:1 Langmuir binding model (FcγRI) or steady state analysis (Octet software version HT v11.1).

FcγRIIb/c = molecular target: T4, FcγRIIb/c (Homo sapiens, UniProt P31994); assay: as above; format: binding
T4 construct: purchased Acro Biosystems
T4 sequence (P31994 43-310): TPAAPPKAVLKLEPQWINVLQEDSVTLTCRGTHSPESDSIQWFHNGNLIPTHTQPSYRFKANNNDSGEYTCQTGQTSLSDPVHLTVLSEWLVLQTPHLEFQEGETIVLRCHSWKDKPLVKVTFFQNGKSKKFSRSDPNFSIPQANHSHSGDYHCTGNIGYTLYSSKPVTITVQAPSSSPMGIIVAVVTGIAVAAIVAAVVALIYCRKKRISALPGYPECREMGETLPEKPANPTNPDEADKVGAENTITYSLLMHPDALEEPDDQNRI
Experimental: as §1

FcγRI = molecular target: T5, FcγRI (Homo sapiens, UniProt P12314); assay: as above; format: binding
T5 construct: purchased Acro Biosystems
Experimental: as §1

T2 sequence (P01308 25-54 limits assumed): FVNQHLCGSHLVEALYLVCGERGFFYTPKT
T2 sequence (P01308 90-110 limits assumed): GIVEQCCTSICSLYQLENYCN
T1 sequence (P55899 24-297 limits assumed): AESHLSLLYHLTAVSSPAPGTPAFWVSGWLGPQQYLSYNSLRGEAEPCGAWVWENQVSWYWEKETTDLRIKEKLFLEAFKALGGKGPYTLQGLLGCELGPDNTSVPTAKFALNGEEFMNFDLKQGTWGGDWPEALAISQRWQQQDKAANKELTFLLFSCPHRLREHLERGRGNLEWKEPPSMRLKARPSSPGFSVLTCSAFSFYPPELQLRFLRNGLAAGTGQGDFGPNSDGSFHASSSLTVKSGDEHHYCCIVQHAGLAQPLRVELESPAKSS
T1 sequence (P61769 21-119 partner): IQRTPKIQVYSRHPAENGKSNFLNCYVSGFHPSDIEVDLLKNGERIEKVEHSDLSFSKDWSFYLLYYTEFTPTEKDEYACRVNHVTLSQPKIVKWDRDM
T5 sequence (P12314 16-374): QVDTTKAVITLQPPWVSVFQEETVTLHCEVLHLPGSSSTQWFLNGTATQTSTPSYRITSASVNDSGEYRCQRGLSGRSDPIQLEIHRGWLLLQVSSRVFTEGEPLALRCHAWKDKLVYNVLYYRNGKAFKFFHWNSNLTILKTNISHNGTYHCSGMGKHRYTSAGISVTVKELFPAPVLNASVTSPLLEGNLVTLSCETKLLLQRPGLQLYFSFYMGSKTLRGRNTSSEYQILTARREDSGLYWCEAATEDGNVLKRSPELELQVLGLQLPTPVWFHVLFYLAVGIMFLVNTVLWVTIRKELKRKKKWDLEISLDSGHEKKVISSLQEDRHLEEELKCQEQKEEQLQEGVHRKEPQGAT

With “H106: anti-HER2 VHH-Fc, FcRn mutant S254A [Compound H106]” the Kd (hFcRn) was 13 nM, the “Polyreactivity Assay Score, Insulin” value (human insulin) was 1.321 and the Clearance [1] was 19.8 mL/day. The Cmax [1] was 53.5 µg/mL and the “Terminal Half-Life” value [1] was 170 h.

With “H107: anti-HER2 VHH-Fc, FcRn mutant H310A [Compound H107]” the “KD (nM) to FcRn” value (hFcRn) was “No binding”, the “Polyreactivity Assay Score, Insulin” value (human insulin) was 1.306 and the Clearance [1] was 304.4 mL/day. For the same substance, the Cmax [1] was 62.4 µg/mL, the “Terminal Half-Life” value [1] was 9.84 h and the Whole body clearance (BT-474 tumor) was “increased clearance”.

For “H137: anti-HER2 VHH-Fc, H435Q, Fc effector mutant AEASS [Compound H137]”, the “KD (nM) to FcRn” value (hFcRn) was “Weak”, the Kd (FcγRIIa (R167)) was 1200 nM and the “FcγRIIb/c nM KD” value (FcγRIIb/c) was “weak”.

In the case of “H105: anti-HER2 VHH-Fc, FcRn mutant I253A [Compound H105]”, the “KD (nM) to FcRn” value (hFcRn) is reported as “Weak”, the “Polyreactivity Assay Score, Insulin” value (human insulin) is reported as 1.207 and the Clearance [1] is reported as 152.1 mL/day. The Cmax [1] was 63.9 µg/mL, the “Terminal Half-Life” value [1] was 26.9 h and the Whole body clearance (BT-474 tumor) was “increased clearance”.

In the case of “H108: anti-HER2 VHH-Fc, FcRn mutant H435Q [Compound H108]”, the “KD (nM) to FcRn” value (hFcRn) is reported as “Weak”, the “Polyreactivity Assay Score, Insulin” value (human insulin) is reported as 1.420 and the Clearance [1] is reported as 117.5 mL/day. For the same substance, the Cmax [1] was 46.6 µg/mL, the “Terminal Half-Life” value [1] was 37.7 h and the Whole body clearance (BT-474 tumor) was “increased clearance”.

For “H135: anti-HER2 VHH-Fc, H310A, Fc effector mutant AEASS [Compound H135]”, the “KD (nM) to FcRn” value (hFcRn) was “No binding”, the Kd (FcγRIIa (R167)) was 1200 nM and the “FcγRIIb/c nM KD” value (FcγRIIb/c) was “weak”.

For “H109: anti-HER2 VHH-Fc, FcRn mutant Y463A (as printed) [Compound H109]”, the Kd (hFcRn) was 13 nM, the “Polyreactivity Assay Score, Insulin” value (human insulin) was 1.244 and the Clearance [1] was 18.2 mL/day. The Cmax [1] was 52.2 µg/mL and the “Terminal Half-Life” value [1] was 166 h.

In the case of “H133: anti-HER2 VHH-Fc, FcRn wt, Fc effector mutant AEASS [Compound H133]”, the Kd (hFcRn) is reported as 2.1 nM, the Kd (FcγRI) is reported as 1 nM and the Kd (FcγRIIa (R167)) is reported as 2300 nM. For the same substance, the “FcγRIIb/c nM KD” value (FcγRIIb/c) was “weak”.
